Experimental data from patent publication US20210317225A1 (Genmab, published 2021).

Tests used:
[1] = target: Human CD137 (TNR9_Human) (human, UniProt Q07011 24-255); assay: cell-based or functional assay
[2] = target: Human CD40 (human, UniProt P25942 21-277); assay: cell-based or functional assay
Human CD40, sequence (P25942 21-277): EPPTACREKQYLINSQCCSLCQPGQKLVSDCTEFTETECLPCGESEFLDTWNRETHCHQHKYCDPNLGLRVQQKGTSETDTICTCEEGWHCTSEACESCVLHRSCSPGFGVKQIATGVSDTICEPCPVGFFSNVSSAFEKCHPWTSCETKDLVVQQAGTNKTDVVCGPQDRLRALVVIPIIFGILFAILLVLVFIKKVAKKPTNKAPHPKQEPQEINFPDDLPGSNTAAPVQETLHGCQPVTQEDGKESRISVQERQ

Human CD137 (TNR9_Human), sequence (Q07011 24-255): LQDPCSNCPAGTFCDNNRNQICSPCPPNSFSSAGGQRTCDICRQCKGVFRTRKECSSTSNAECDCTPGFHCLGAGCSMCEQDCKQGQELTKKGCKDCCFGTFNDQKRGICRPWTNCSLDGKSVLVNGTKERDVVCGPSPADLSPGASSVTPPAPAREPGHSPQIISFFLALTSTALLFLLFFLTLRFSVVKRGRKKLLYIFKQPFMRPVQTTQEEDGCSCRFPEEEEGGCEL

| luciferase activity (RLU) of NF-KB/293/GFP-Luc cells transduced with CD137, incubated with K562_CD40 [1] | luciferase activity (RLU) of NF-KB/293/GFP-Luc cells transduced with CD40, incubated with K562_CD137 [2] | EC50 for induction of T-cell proliferation (antigen-specific CD8+ T-cell assay, proliferation index curves) [1] | Binder |
| --- | --- | --- | --- |
| ~100 ng/mL | ~100 ng/mL | – | CD40-001-FEALxCD137-001-FEAR (bispecific antibody, human IgG1, kappa) heavy 1: EVQLQQSGPDLVKPGASVKISCKTSGYTFTEYIMHWVKQSHGKSLEWIGGIIPNNGGTSYNQKFKDKATMTVDKSSSTGYMELRSLTSEDSAVYYCTRREVYGRNYYALDYWGQGTLVTVSSASTKGPSVFPLAPSSKSTSGGTAALGCLVKDYFPEPVTVSWNSGALTSGVHTFPAVLQSSGLYSLSSVVTVPSSSLGTQTYICNVNHKPSNTKVDKRVEPKSCDKTHTCPPCPAPEFEGGPSVFLFPPKPKDTLMISRTPEVTCVVVAVSHEDPEVKFNWYVDGVEVHNAKTKPREEQYNSTYRVVSVLTVLHQDWLNGKEYKCKVSNKALPAPIEKTISKAKGQPREPQVYTLPPSREEMTKNQVSLTCLVKGFYPSDIAVEWESNGQPENNYKTTPPVLDSDGSFLLYSKLTVDKSRWQQGNVFSCSVMHEALHNHYTQKSLSLSPGK light 1: DIQMTQTTSSLSASLGDRVTITCSASQGINNYLNWYQQKPDGTVKLLIYYTSSLHSGVPSRFSGSGSGTDYSLTISNLEPEDIATYYCQQYSNLPYTFGGGTKLEIKRTVAAPSVFIFPPSDEQLKSGTASVVCLLNNFYPREAKVQWKVDNALQSGNSQESVTEQDSKDSTYSLSSTLTLSKADYEKHKVYACEVTHQGLSSPVTKSFNRGEC heavy 2: QSVEESGGRLVTPGTPLTLTCTVSGFSLSSYAVSWVRQAPGKGLEWIGVIWNNGATHYATWAKGRFTISKASTTVDLKVTSPTTEDTATYFCARSANDAWSTYSDLWGQGTLVTVSSASTKGPSVFPLAPSSKSTSGGTAALGCLVKDYFPEPVTVSWNSGALTSGVHTFPAVLQSSGLYSLSSVVTVPSSSLGTQTYICNVNHKPSNTKVDKRVEPKSCDKTHTCPPCPAPEFEGGPSVFLFPPKPKDTLMISRTPEVTCVVVAVSHEDPEVKFNWYVDGVEVHNAKTKPREEQYNSTYRVVSVLTVLHQDWLNGKEYKCKVSNKALPAPIEKTISKAKGQPREPQVYTLPPSREEMTKNQVSLTCLVKGFYPSDIAVEWESNGQPENNYKTTPPVLDSDGSFFLYSRLTVDKSRWQQGNVFSCSVMHEALHNHYTQKSLSLSPGK light 2: DIVMTQTPASVEAAVGGTVTIKCQASQTITNYLSWYQQKPGQPPKLLIYKASTLTSGVSSRFKGSGSGTEFTLTISDLESDDAATYYCQNYYYGSSSGYGFVFGGGTEVVVKRTVAAPSVFIFPPSDEQLKSGTASVVCLLNNFYPREAKVQWKVDNALQSGNSQESVTEQDSKDSTYSLSSTLTLSKADYEKHKVYACEVTHQGLSSPVTKSFNRGEC |
| ~100 ng/mL | ~100 ng/mL | 5 ng/mL | CD40-001-FEALxCD137-005-FEAR (bispecific antibody, human IgG1, kappa) heavy 1: EVQLQQSGPDLVKPGASVKISCKTSGYTFTEYIMHWVKQSHGKSLEWIGGIIPNNGGTSYNQKFKDKATMTVDKSSSTGYMELRSLTSEDSAVYYCTRREVYGRNYYALDYWGQGTLVTVSSASTKGPSVFPLAPSSKSTSGGTAALGCLVKDYFPEPVTVSWNSGALTSGVHTFPAVLQSSGLYSLSSVVTVPSSSLGTQTYICNVNHKPSNTKVDKRVEPKSCDKTHTCPPCPAPEFEGGPSVFLFPPKPKDTLMISRTPEVTCVVVAVSHEDPEVKFNWYVDGVEVHNAKTKPREEQYNSTYRVVSVLTVLHQDWLNGKEYKCKVSNKALPAPIEKTISKAKGQPREPQVYTLPPSREEMTKNQVSLTCLVKGFYPSDIAVEWESNGQPENNYKTTPPVLDSDGSFLLYSKLTVDKSRWQQGNVFSCSVMHEALHNHYTQKSLSLSPGK light 1: DIQMTQTTSSLSASLGDRVTITCSASQGINNYLNWYQQKPDGTVKLLIYYTSSLHSGVPSRFSGSGSGTDYSLTISNLEPEDIATYYCQQYSNLPYTFGGGTKLEIKRTVAAPSVFIFPPSDEQLKSGTASVVCLLNNFYPREAKVQWKVDNALQSGNSQESVTEQDSKDSTYSLSSTLTLSKADYEKHKVYACEVTHQGLSSPVTKSFNRGEC heavy 2: QSVEESGGRLVTPGTPLTLTCTASGFTISDFHVTWVRQAPGKGLEWIGTIITSASTTAYATWARGRFTISKSSTTVNLKIVSPTTEDTATYFCARSTYTDTSGYYFDFWGQGTLVTVSSASTKGPSVFPLAPSSKSTSGGTAALGCLVKDYFPEPVTVSWNSGALTSGVHTFPAVLQSSGLYSLSSVVTVPSSSLGTQTYICNVNHKPSNTKVDKRVEPKSCDKTHTCPPCPAPEFEGGPSVFLFPPKPKDTLMISRTPEVTCVVVAVSHEDPEVKFNWYVDGVEVHNAKTKPREEQYNSTYRVVSVLTVLHQDWLNGKEYKCKVSNKALPAPIEKTISKAKGQPREPQVYTLPPSREEMTKNQVSLTCLVKGFYPSDIAVEWESNGQPENNYKTTPPVLDSDGSFFLYSRLTVDKSRWQQGNVFSCSVMHEALHNHYTQKSLSLSPGK light 2: AQVLTQTASPVSAAVGGTVIINCQSSQSIYNGNRLSWYQQKPGQPPKLLIYSASTLASGVSSRFKGSGSGTQFTLAISDVQSDDAATYYCLGSYDCDSADCFAFGGGTEVVVERTVAAPSVFIFPPSDEQLKSGTASVVCLLNNFYPREAKVQWKVDNALQSGNSQESVTEQDSKDSTYSLSSTLTLSKADYEKHKVYACEVTHQGLSSPVTKSFNRGEC |
| ~100 ng/mL | ~100 ng/mL | – | CD40-001-FEALxCD137-006-FEAR (bispecific antibody, human IgG1, kappa) heavy 1: EVQLQQSGPDLVKPGASVKISCKTSGYTFTEYIMHWVKQSHGKSLEWIGGIIPNNGGTSYNQKFKDKATMTVDKSSSTGYMELRSLTSEDSAVYYCTRREVYGRNYYALDYWGQGTLVTVSSASTKGPSVFPLAPSSKSTSGGTAALGCLVKDYFPEPVTVSWNSGALTSGVHTFPAVLQSSGLYSLSSVVTVPSSSLGTQTYICNVNHKPSNTKVDKRVEPKSCDKTHTCPPCPAPEFEGGPSVFLFPPKPKDTLMISRTPEVTCVVVAVSHEDPEVKFNWYVDGVEVHNAKTKPREEQYNSTYRVVSVLTVLHQDWLNGKEYKCKVSNKALPAPIEKTISKAKGQPREPQVYTLPPSREEMTKNQVSLTCLVKGFYPSDIAVEWESNGQPENNYKTTPPVLDSDGSFLLYSKLTVDKSRWQQGNVFSCSVMHEALHNHYTQKSLSLSPGK light 1: DIQMTQTTSSLSASLGDRVTITCSASQGINNYLNWYQQKPDGTVKLLIYYTSSLHSGVPSRFSGSGSGTDYSLTISNLEPEDIATYYCQQYSNLPYTFGGGTKLEIKRTVAAPSVFIFPPSDEQLKSGTASVVCLLNNFYPREAKVQWKVDNALQSGNSQESVTEQDSKDSTYSLSSTLTLSKADYEKHKVYACEVTHQGLSSPVTKSFNRGEC heavy 2: QSVEESGGRLVTPGTPLTLTCTVSGFSLSSYAMSWVRQAPGKGLEWIGIISTSGITYYASWAKGRFTISKTSTMVDLKITSPTTEDTATYFCARLNGFDDYVRYFDFWGLGTLVTVSSASTKGPSVFPLAPSSKSTSGGTAALGCLVKDYFPEPVTVSWNSGALTSGVHTFPAVLQSSGLYSLSSVVTVPSSSLGTQTYICNVNHKPSNTKVDKRVEPKSCDKTHTCPPCPAPEFEGGPSVFLFPPKPKDTLMISRTPEVTCVVVAVSHEDPEVKFNWYVDGVEVHNAKTKPREEQYNSTYRVVSVLTVLHQDWLNGKEYKCKVSNKALPAPIEKTISKAKGQPREPQVYTLPPSREEMTKNQVSLTCLVKGFYPSDIAVEWESNGQPENNYKTTPPVLDSDGSFFLYSRLTVDKSRWQQGNVFSCSVMHEALHNHYTQKSLSLSPGK light 2: AIELTQTPSSVSAAVGGTVTINCQASESIASNLAWYQQKPGQPPKLLIYAASYLASGVPSRFKGSGSGTEYTLTISGVQSADAATYYCQSAFYVSSSDNAFGGGTEVVVKRTVAAPSVFIFPPSDEQLKSGTASVVCLLNNFYPREAKVQWKVDNALQSGNSQESVTEQDSKDSTYSLSSTLTLSKADYEKHKVYACEVTHQGLSSPVTKSFNRGEC |
| ~100 ng/mL | ~100 ng/mL | – | CD40-001-FEALxCD137-007-FEAR (bispecific antibody, human IgG1, kappa) heavy 1: EVQLQQSGPDLVKPGASVKISCKTSGYTFTEYIMHWVKQSHGKSLEWIGGIIPNNGGTSYNQKFKDKATMTVDKSSSTGYMELRSLTSEDSAVYYCTRREVYGRNYYALDYWGQGTLVTVSSASTKGPSVFPLAPSSKSTSGGTAALGCLVKDYFPEPVTVSWNSGALTSGVHTFPAVLQSSGLYSLSSVVTVPSSSLGTQTYICNVNHKPSNTKVDKRVEPKSCDKTHTCPPCPAPEFEGGPSVFLFPPKPKDTLMISRTPEVTCVVVAVSHEDPEVKFNWYVDGVEVHNAKTKPREEQYNSTYRVVSVLTVLHQDWLNGKEYKCKVSNKALPAPIEKTISKAKGQPREPQVYTLPPSREEMTKNQVSLTCLVKGFYPSDIAVEWESNGQPENNYKTTPPVLDSDGSFLLYSKLTVDKSRWQQGNVFSCSVMHEALHNHYTQKSLSLSPGK light 1: DIQMTQTTSSLSASLGDRVTITCSASQGINNYLNWYQQKPDGTVKLLIYYTSSLHSGVPSRFSGSGSGTDYSLTISNLEPEDIATYYCQQYSNLPYTFGGGTKLEIKRTVAAPSVFIFPPSDEQLKSGTASVVCLLNNFYPREAKVQWKVDNALQSGNSQESVTEQDSKDSTYSLSSTLTLSKADYEKHKVYACEVTHQGLSSPVTKSFNRGEC heavy 2: QSLEESGGRLVTPGTPLTLTCTASGFSLSSYDVSWVRQAPGKGLEYIGFIGSDGSAHYATWVKGRFTISKTSTTVDLKITSPTTEDTATYFCARDWNDYWAHDLWGPGTLVTVSSASTKGPSVFPLAPSSKSTSGGTAALGCLVKDYFPEPVTVSWNSGALTSGVHTFPAVLQSSGLYSLSSVVTVPSSSLGTQTYICNVNHKPSNTKVDKRVEPKSCDKTHTCPPCPAPEFEGGPSVFLFPPKPKDTLMISRTPEVTCVVVAVSHEDPEVKFNWYVDGVEVHNAKTKPREEQYNSTYRVVSVLTVLHQDWLNGKEYKCKVSNKALPAPIEKTISKAKGQPREPQVYTLPPSREEMTKNQVSLTCLVKGFYPSDIAVEWESNGQPENNYKTTPPVLDSDGSFFLYSRLTVDKSRWQQGNVFSCSVMHEALHNHYTQKSLSLSPGK light 2: AQVLTQTTSPVSAAVGGTVTINCQASQIVTSKSALSWYQQKPGQPPRLLIYKASTLASGVPSRFSGSGSGTQFTLTISDLESDDAATYYCAGGYYNSGDLNPFGGGTEVVVKRTVAAPSVFIFPPSDEQLKSGTASVVCLLNNFYPREAKVQWKVDNALQSGNSQESVTEQDSKDSTYSLSSTLTLSKADYEKHKVYACEVTHQGLSSPVTKSFNRGEC |
